According to patent US20200121801A1, “DRUG DELIVERY CONJUGATES CONTAINING UNNATURAL AMINO ACIDS AND METHODS FOR USING” (priority 2012, published 2020):
pIC50: −log10 of the molar value.

What was measured:
[1] = test system: experimental autoimmune encephalomyelitis; experiment: Autoimmune encephalomyelitis (EAE) model; format: in vivo, rats
Method: METHOD. Autoimmune Encephalomyelitis (EAE) Model. EAE is induced in rats by immunization against 25 μg of guinea pig myelin basic protein (MBP) formulated with CFA containing 1 mg of grounded Mycobacterium tuberculosis H37Ra. Pertussis toxin is given intraperitoneally (1 μg/rat) to enhance the organ-specific autoimmunity. Starting 8 days after induction, rats are divided into […]: (1) untreated control (n=8), (2) test compound (n=7), and (3) test compound plus competitor compound (n=7), such as EC0923 competition. All treatments start on day 8 after EAE induction. The animals in the EAE control group are left untreated. […] The clinical severity of EAE is monitored on a daily basis and graded on a scale of 0 to 5 per animal. The clinical signs of ascending paralysis of EAE rats are divided into a 0-5 scale: 0=No disease, 0.5=distal limp tail, 1=limp tail, 2=mild paraparesis; ataxia-weakened hind limbs, 3=moderate paraparesis; hind limbs paresis, 4=complete hind limb paralysis, 5=complete hind limb paralysis and incontinence (euthanasia). On day 16, the animals are euthanized and brain and spinal cords are fixed in formalin for histology.

RAW264.7 macrophages = experiment: XTT cell viability assay on RAW264.7 macrophages; format: cell-based, murine
Method: METHOD. Inhibition of Cellular DNA Synthesis. The compounds described herein are evaluated using an in vitro cytotoxicity assay that predicts the ability of the drug to inhibit the growth of folate receptor-positive cells, such as KB cells, RAW264.7 macrophages, and the like. It is to be understood that the choice of cell type can made on the basis of the susceptibility of those selected cells to the drug that forms the conjugate. The test compounds are comprised of folate linked to a respective chemotherapeutic drug, as prepared according to the processes described herein. The test cells are exposed to varying concentrations of folate-drug conjugate, and also in the absence or presence of at least a 100-fold excess of folic acid to assess activity as being specific to folate receptor mediation.
EXAMPLE. […] The anti-proliferative activity of EC1669 is measured in a XTT cell viability assay (FIG. 2) on RAW264.7 cells after a 2-h exposure and a total of 72 h incubation.
RAW264.7 macrophages are susceptible to the drug forming the EC1669 conjugate, aminopterin. The cell viability is assessed by adding XTT (2,3-bis(2-methoxy-4-nitro-5-sulfo-phenyl)-2H-tetrazolium-5-carboxanilide) following the manufacturer's instructions. […] The observed anti-proliferative effect was 100% competable in the presence of 100-fold excess folic acid (FA), indicating a FR-specific mode of action for EC1669.

[2] = biological target: T1, folate receptors (FR) on CHO-FRβ cells (Homo sapiens, UniProt P14207); experiment: Relative affinity assay (3H-folic acid competition) on CHO-FRβ cells; format: binding; settings: 1 h at 37° C.
T1 construct: expressed in transfected cells; host or cells: CHO cells (CHO-FRβ)
T1 sequence (P14207 17-230): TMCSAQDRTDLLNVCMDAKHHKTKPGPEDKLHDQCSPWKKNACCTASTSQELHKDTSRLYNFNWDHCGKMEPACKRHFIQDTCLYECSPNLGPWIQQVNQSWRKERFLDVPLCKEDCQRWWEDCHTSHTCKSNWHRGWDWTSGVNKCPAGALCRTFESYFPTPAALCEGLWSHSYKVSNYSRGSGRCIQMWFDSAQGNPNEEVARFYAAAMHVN

[3] = Plasma clearance after s.c. administration; format: in vivo, Lewis rats
Method: METHOD. Plasma clearance. In vivo studies include a minimum of 3 test animals, such as rats, per time point. Illustratively, female Lewis rats with jugular vein catheters (Harlan, regular rodent diet) are given a single subcutaneous injection of test compound, such as EC1669 at 500 nmol/kg. Whole blood samples (300 μL) are collected at the following time points: 1 min, 10 min, 30 min, 1 h, 2 h, 3 h, 4 h, 8 h, and 12 h after injection. The blood samples are placed into anti-coagulant tubes containing 1.7 mg/mL of K3-EDTA and 0.35 mg/mL of N-maleoyl-beta-alanine (0.35 mg/mL) in a 0.15% acetic acid solution. Plasma samples are obtained by centrifugation for 3 min at ˜2,000 g and stored at −80° C. The amounts of test compound in the plasma and any metabolites, such as EC1669 and its two active metabolites aminopterin (AMT) and AMT hydrazide (EC0470), respectively, are quantified by LC-MS/MS.

[4] = biological target: T2, folate receptors (FRs) on KB cells (Homo sapiens, UniProt P15328); experiment: Relative affinity assay (3H-folic acid competition) on KB cells; format: binding; settings: KB cells, 1 h at 37° C.
T2 construct: FR-positive KB cells are heavily seeded into 24-well cell culture plates; endogenous in cells; host or cells: KB cells
T2 sequence (P15328 25-234): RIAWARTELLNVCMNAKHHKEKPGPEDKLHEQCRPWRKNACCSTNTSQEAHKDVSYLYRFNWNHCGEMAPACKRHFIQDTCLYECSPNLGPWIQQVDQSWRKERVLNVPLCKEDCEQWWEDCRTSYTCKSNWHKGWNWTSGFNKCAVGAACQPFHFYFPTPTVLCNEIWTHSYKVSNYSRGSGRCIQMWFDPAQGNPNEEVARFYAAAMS

Structure (SMILES): N=c1[nH]c(N)nc2ncc(CNc3ccc(C(=O)N[C@@H](CCC(=O)NNC(=O)OCCSSC[C@@H](NC(=O)[C@H](CCC(=O)NC[C@H](O)[C@@H](O)[C@H](O)[C@H](O)CO)NC(=O)[C@@H](CCC(=O)O)NC(=O)[C@H](CCC(=O)NC[C@H](O)[C@@H](O)[C@H](O)[C@H](O)CO)NC(=O)[C@@H](CCC(=O)O)NC(=O)[C@H](CCC(=O)NC[C@H](O)[C@@H](O)[C@H](O)[C@H](O)CO)NC(=O)CC[C@H](NC(=O)c4ccc(NCc5cnc6nc(N)[nH]c(=O)c6n5)cc4)C(=O)O)C(=O)O)C(=O)O)cc3)nc12 [EC1669]
- therapeutic effect with folate receptor competitor EC0923 ([1]; excess EC0923): blocked
- efficacy against EAE (clinical score) ([1]; s.c. every other day from day 8): effectively suppresses the neurological symptoms
- treatment-related weight loss ([1]; when dosed alone): not observed
- pIC50 (RAW264.7 macrophages; 2-h exposure, total of 72 h incubation, read-out: relative IC50, inhibition of cell proliferation): ~8.92
- anti-proliferative effect competable by folic acid (RAW264.7 macrophages; 100-fold excess folic acid): 100%
- relative affinity (normalized against folic acid, set to 1) [2]: 0.13
- half-life ([3]; female, Lewis, rat, in vivo, sc, EC1669 500 nmol/kg s.c., blood, read-out: elimination half-life): ~37 min
- Cmax ([3]; female, Lewis, rat, in vivo, sc, EC1669 500 nmol/kg s.c., plasma, read-out: Cmax): ~472 nM
- AUC ([3]; female, Lewis, rat, in vivo, sc, EC1669 500 nmol/kg s.c., read-out: area-under-the-curve (AUC) (converted)): 0.867 µM·h
- % Released: AMT ([3]; plasma, 12 h collection period): 9.5%
- % Released: EC0470 ([3]; plasma, 12 h collection period): 6.3%
- % Released: Total (AMT plus EC0470) ([3]; plasma, 12 h collection period, based on AUC): ~15.8%
- AMT/EC0470 Ratio ([3]; rat, in vivo): 1.51
- relative affinity (normalized against folic acid, set to 1) [4]: 0.53
